Measurements reported in a protein production outcome set (Wang et al. 2014).

Test: label from the status in PepcDB records

## MQGKKFISPGAWFSMNYPSDWNEFEDGEGSFLFYNPDVWTGNFRISAFKGNASYGKDAIRQELKENDSASLVKIGTWDCAYSKEMFQEEGTYYTSHLWITGTGNIAFECSFTVPKGGSAKEAEEVIATLEARKEGEKYPAELIPVRLSEIYQINEGYEWVVSTVKQELKKDFQGVEEDLEKIQQVIDSGKISPKKKDEWLAIGITVCAILTNEVEGMEWKTLIDGNREVPVLEYQGRTIDPMKIAWSKVKAGQPCNIAEAYQSAIDHH
  protein production: not failed

## MADLALLVLTLLWGTTFALVKEALEIASPGVFLTARFGLAAVALLAAWALRPRAPLGDGFWRHGILLGLTMLVGFVLQTVALRHTTPARSGFITGLNVLVVPVVARWFLGRRVRPAFWVGVAFALAGLVMLTRPFTPGAVTEEVRFGDLLTLFCAVAYGLQVTFTSEWAPRHPLAPFVAVQVLVTLAGALVLAPLEGPRFDPAGAGHFALVVAFTGLVMTALAFFVMNWGQRHTTAVRAALIFSLEPAAAAVFSWLYYGEPLGPLDWAGGALMVLGVVAGEVGGVLEARAPRRARGERASTGPG
  protein production: failed

## MLERIANIQKKLSKSIVERKINEVRKVAAVDVSYKEEKARAALVITTFPEGEVLKTKVIETTVSFPYIPTFFFLRETKPILIATKGETFDVLIVEGHGKAHPRGYGLASHIGVVLRKPTIGVAKRLLKNTPKDTYKKVGKVYVSVGNLITLEDATKIIRAILDESGYPKPLKLADKLSKGRIYEVKNTPSPNRSRKKRGNRGKDNNNSQGNLEHHHHHH
  protein production: failed

## MSTPSHLNAQPLVWGHGPRTFEVFLEPTCPYSVRAFNKLDDLLDEVGADNVTIKIRLQSQPWHLFSGVIVRCILAASTLPHGREQAHKVMQAVADHREEFEFTDHCSGPNMNATPQQIIERIERYSHVLLGAAFARPELQDVIKWHSKYARQNGIHVSPTFMVNGLVQPDLGSGDDVSVWAARIMA
  protein production: failed

## MKIYFEAYGCTLNQGETALYVNKLLNEGNTLVSNPKEADLSIIGTCAVIKKTEDHMMARIQNLSRFGKVEVIGCLAPVKGKTMVEDNVSVIEKDRFRSFQEVIDEVSPVNAEIVSGIPINQGCTGKCNFCVSHIARGKLVSRKPEKIAGQIKILLQRGIKEIKITSLDTAAYGKDIGLRLPHLIRTITEIGDDFRLRVGMMEPKNTLEIVDDLISAYRSEKVFKFLHLPVQSGDDYVLEVMNREYTVSDFIRITGKFREAFPDSTLSTDLIIGYYAENDDSFEKTVQLIEKIRPEIINVTKFSPRELTADFEKRPKPTNILKEQDRMIADMHKEILQEKFSNLIGKTEFVLITENGKGRSMIGRDHAYRPIVIMDKTRKFEFHQVEITGFENTSLIGRIIDLEHHHHHH
  protein production: failed

## MLRSCARRLRTLGALCQPPPVGRRLPGSEPQPALRSFSSEEVILKDYSVPNPSWNKDLRLLFDQFMKKCEDGSWKRLPSYKRTPTERIQDFKTHFLDPKLMKEEQVSQAQLFTRSFDDGLGFEYVMFYNDVEKRMVCLFQGVPYLEGPPGLIHGGAIATMIDATVGMCAMMAGGIVMTANLNISCKRPIPLCSVVRINSQLDKVEGKKFFVSSNVQSVDEKTLYSEATSLLIKLNPAKSLT
  protein production: failed

## MRKTWPLLTLLLCTCASAQLRADIAHNTPPGQATMQVYDGEKVLFQATTPGLNAVTASKFSPDGRWLLNIADGSGYVQLWDTAKGERVKTFLSVYFRIFGADFTPDSERLLLDFSGSKERADPRRPAYFPSPSLWNLATLERISFVYNDKRESFYNGKVTFSQDGERMAFVRPNAYSSGPASVWNAKTGAYIATISRLPYPKGAAQTGGAGAMDARLSPDGQRVLVRYVDNRLAEYDASTGTLLKVRGKFSAADAGAELERFAREGR
  protein production: failed

## MPTVLRWTRTMCKRPTCRVRQAWLVLPITGRWPSGGVSMKHACMLDSALPKPSQHSLRRQLNAIKREQFPWMSEVTKNAPQMAIIQLGRAFQNFFAGRAKYPKFRKKGMHDRFTLTNDQFDLEASRIRIPRLGWVRMRETLRFAGKIMLATVSRVAGRWFVSITVDVPDPSHLPQAENQGTVGVDLGVLVLATLSTGETVCGPRPHRALLGRVCRLSRSVLRKVKGSANRHKAKATLANLHARIAAIRLDALHTLTSDLTRRFHTIGIENLNVKGMLRNRHLARSIADIGFFEFRRQLEYKAMMRGGQVVVANRFFASSKRCLTCGHTLNELPLSVRQWACPACGARHDRDVNAAVNLKNMAVSSTVSACGEEGAGPRRKTAVGEAGSQLLEHHHHHH
  protein production: failed

## MTIDDMSLVVGMYGNYEVTKTGNLVGILEVSGINLDLLNETEQQDVFEDYGAFLMSTLGEGVDDTLQFLEPTIPVNMTTYLNGLKRRYLALQKDHPEQQFKIQLIASYLDHFTKVQESKNMTTKQHLLIVKVPIKDKSAESLNLAVAHLDEKIEQVKRDIENALTDFDVTAKILTSQEVQEILKNLINFNGLEHHHHHH
  protein production: not failed

## MTVSQDILLTDHFKQWIEIFKKGKVSDGTYRKYLYTLSVLKKHFSTATIKTMNRVKYQEMLNEFAEGHSDSSVKQINVHVRASLENLLDDFIIKNDFTKGAISLEHHHHHH
  protein production: not failed

## MSIFANLKDRMKAVFQPRSDILASQDAESTPGSRDALFAIEELSRAVRNDPDAVEIYLALGNLYRLRGDIDRAVQIRSSLIVRPGLDNRFRARAYLELGRDYRRGGFVDRALQAFDEAQRLGAERDAIILELAHLHADSGSFDLAAEQFGRVGHKPAQAHYLVRHAEDLCGQGEFAEAVKTLTRAVKVYPGSIEAWTTRIAMHIRSGEWRKAKSMLREAMQSVSPDRRFLVFDGILAITPPENAPDSVQQFEQNRCECVLPVISEQEPELLLHYYGALFLLRCGEREQAGNWLAKAMVLRPDFWAARLELLGISMDRQQLSPVFKGQLEYFVSQARHVKRFVCQNCGLRREQAFYLCPRCRSWHSATFRLSLQD
  protein production: failed

## MAKNDKINFSTPSGFPEFLPSEKRLELYLLDTIRRVYESYGFTPIETPAVERLEVLQAKGNQGDNIIYGLEPILPPNRQAEKDKSGDTGSEARALKFDQTVPLAAYIARHLNDLTFPFARYQMDVVFRGERAKDGRFRQFRQCDIDVVGREKLSLLYDAQMPAIITEIFEAVNIGDFVIRINNRKVLTGFFQSLNISETQIKSCISIIDNLEKIGEAKVKLELEKEGINPEQTQKIIDFVKIDGSVDDVLDKLKHLSQTLPESEQFNLGVSELETVITGVRNLGVPDKRFCIDLAIARGLNYYTGTVYETTLIGHEALGSICSGGRYEELVGTFIGEKMPGVGISIGLTRLISRLLKAGILNTLPPTPAQVVVVNMQDELMPTYLKVSQQLRQAGLNVITNFEKRQLGKQFQAADKQGIRFCVIIGADEAAAQKSSLKDLQSGEQVEVALADLAEEIKRRLT
  protein production: not failed

## ARLEPLLIGGLYPKNLEDRILIKLDQAPPYLLDGLVAVEDRDFYHHFGVSPKSIARAIWVNTSQGQMRQGGSTLTQQLVKNFYLTNERSLSRKLTEAMMAVLLEIHYSKQEILEAYLNEVFVGQDGQRAVHGFGLASQYFFSQPLSELKIHQVAMLVGLVKGPSFYNPRRNP
  protein production: failed

## MEFWESSFIEKQTMWGFEPTESAILTKDFFLEKNVKNILVPGIGYGRNAKVFIDNGINVTGIEISKTAIDLARENGLEDVSMYHGSVNEMPFDNKLYDGIFSHALLHLLNEQEREKFIEDCYNQLKPGGYMVFTTVSKKAPMYGKGKQLDKDYYEIMDGVKMFFYDSESIKKDFNQYRLVQVSEIDEPNKNMANKPSINFLMIKCKKER
  protein production: failed

## AVNEENIMIPKGVEVYEITGPYFFGIATKFEETMAQLGDRPNVRIIRMRKVPFIDSTGIHNLTTLCEMSQKEKITVILSGVNEKVYKVLEKSGFYELLGKENICPNFKIALDRAEEV
  protein production: failed

## MSLAVTMFKRARAEIFDRNREVGISNVTTAASLVTFPVLAGILGGVVPSVRTPSAAMVSGVQHFAAGIVMAAVAGEVLPDLRSRGPLWLIVVGFSAGVAVLVALRRFDGHGEHQDGDDVGELPVGFLTVVAVDLFIDGLLVATGATVSSRTAIIITIALTVEVLFLGLAVALRLAGSGMPRIRAAATTSALSLVIAVGGVSGAVALGRAGNTVLTLVLAFAAGALLWLVVEELLVEAHETPERPWMAVMFFAGFLILYGLGVME
  protein production: failed

## MSDIISIKDIDLAKKKVFIRCDFNVPQDDFLNITDDRRIRSAIPTIRYCLDNGCSVILASHLGRPKEISSKYSLEPVAKRLARLLDKEIVMAKDVIGEDAKTKAMNLKAGEILLLENLRFEKGETKNDENLAKELASMVQVYINDAFGVCHRAHSSVEAITKFFDEKHKGAGFLLQKEIDFASNLIKHPARPFVAVVGGSKVSGKLQALTNLLPKVDKLIIGGGMAFTFLKALGYDIGNSLLEEELLEEANKILTKGKNLGVKIYLPVDVVAAPACSQDVPMKFVPAQEIPNGWMGLDIGPASVRLFKEVISDAQTIWWNGPMGVFEIDKFSKGSIKMSHYISEGHATSVVGGGDTADVVARAGDADEMTFISTGGGASLELIEGKELPGVKALRSKENE
  protein production: not failed

## MTAEDGAAYIAFLADPQPSAQWVGRRGTPRDRHDWRPFEGPLSPASIRHARKILSTLYGCLIEQGHARANPFEVLSLPTGGDAPRIQVARSFTEPQWRFLLRHVSSLPADDPRAARLTFMLHLAHASGLRISEQAVATVGHLTWSGHWTLAVPGPKPRQIPLPEAVIDALRGHLAARGLGRGFESLPAATPLIGRVKTGDEGDALSVAQIGAIWKRYFAQAATLAGGEDDAAQLAQASAHWMRHTAGAHAVARGVALEVVQQQLGHASLDTTSMYVLAA
  protein production: failed

## MTTVSPDDSSPSTLTSLTFDDLTPGQSASLSRTLTQADLDLFATVSGNIDPSHFADPPAGTTLFPKAIGHGMWSASLISGVLGTRLPGPGTVYLAQDLRFRAPVTLGDTITASVTVREKRTERKTVVFECLCTNQNGVTVVSGTAEVIAPATHASVAAQALPGLQMIRHDRQAALLARCAGLPALPTAVIHPCDGPALQGAVEAAQRGLIEPILVGPSLLIAATAKALGLDISAFRLVEAANGAAAAATGVALVRAGEARAVMKGALHTDELMAAVVKRDGGLRTAGRISHVFLMTVPTYPKPLLITDAVVNIAPSLEDKVHIVQNAIDLARILGVETPKVAILSAVETINPKISSTVDAAALCKMAQRGQIRGGLLDGPLAFDNAISAEAAKTKGIVSEVAGQADILLVPDLESGNMLAKQLSFLAHADAAGIVLGTSAPVMLTSRADNLAARLASCALAVLIDAASRPRSTVLAAE
  protein production: failed

## MSEYRTVSAAAMLGTYEDFLELFEKGYEDKESVLKSNILYDVLRNNNDEARYKISMFLINKGADIKSRTKEGTTLFFPLFQGGGNDITGTTELCKIFLEKGADITALYKPYKIVVFKNIFNYFVDENEMIPLYKLIFSQSGLQLLIKDKWGLTALEFVKRCQKPIALKMMEDYIKKYNLKENS
  protein production: not failed

## EMEEREIINNVFEFGDMQAKNAMVQRIDMVAIDMEDSYDEIIQVFKTEKLSRMPVYEETIDDIVGILNIKDIIFLSDEEIESFDIKNYMREPFFTYEFKKITQLLEEMKLEKSQMAIVVDEYGGTSGLLTIEDLVEVIVGDIE
  protein production: not failed

## MMTTAEQIPFQLILNSGNARSFAMEALQFAKQGKMAEADEAMVKAKEAINEAHHFQTELIQSEARGEKTEISVLLIHAQDHLMNAITVKELAAEFIDLYKKLEAKGE
  protein production: not failed

## AEEKKEDEFKTIKIEKLDGGITKLVLNRPDRLNTISPEVLDEIDRAITQLWNDKDTRVIVITGAGDRAFSAGADLGGSIITHPFDFLEHNRKGERVFTRLREIPKPVIAAINGYALGGGLEIAMNCDIRLAKKSAVLGLPEVGLGILPGWSGTQRLVKLVGISRAMQLALTGERITAEEAERWGLVNKVFDDDKFEEEVMNYAKNIAERCAPISMALIKRLINKGGEVPMDIGLEWECTAAGLLFATEDMREGISAFLRKDKPQFKGR
  protein production: failed

## GTVSWNLREMLAHAEETRKLMPICMDVRAIMATIQRKYKGIKIQEGIVDYGVRFFFYTSKEPVASIITKLNSLNEPLVTMPIGYVTHGFNLEEAARCMRSLKAPAVVSVSSPDAVTTYNGYLTSSSKTSEEHFVETVSLAGSYRDWSYSGQRTELGVEFLKRGDKIVYHTLESPVEFHLDGEVLSLDKLKSLLS
  protein production: not failed
